In publication PMC2928130:

Target: GST-RPGR^1–15 H98Q (UniProt Q92834)
Assay: pull-down

Sequence of UniProt Q92834 (Q92834 whole entry H98Q): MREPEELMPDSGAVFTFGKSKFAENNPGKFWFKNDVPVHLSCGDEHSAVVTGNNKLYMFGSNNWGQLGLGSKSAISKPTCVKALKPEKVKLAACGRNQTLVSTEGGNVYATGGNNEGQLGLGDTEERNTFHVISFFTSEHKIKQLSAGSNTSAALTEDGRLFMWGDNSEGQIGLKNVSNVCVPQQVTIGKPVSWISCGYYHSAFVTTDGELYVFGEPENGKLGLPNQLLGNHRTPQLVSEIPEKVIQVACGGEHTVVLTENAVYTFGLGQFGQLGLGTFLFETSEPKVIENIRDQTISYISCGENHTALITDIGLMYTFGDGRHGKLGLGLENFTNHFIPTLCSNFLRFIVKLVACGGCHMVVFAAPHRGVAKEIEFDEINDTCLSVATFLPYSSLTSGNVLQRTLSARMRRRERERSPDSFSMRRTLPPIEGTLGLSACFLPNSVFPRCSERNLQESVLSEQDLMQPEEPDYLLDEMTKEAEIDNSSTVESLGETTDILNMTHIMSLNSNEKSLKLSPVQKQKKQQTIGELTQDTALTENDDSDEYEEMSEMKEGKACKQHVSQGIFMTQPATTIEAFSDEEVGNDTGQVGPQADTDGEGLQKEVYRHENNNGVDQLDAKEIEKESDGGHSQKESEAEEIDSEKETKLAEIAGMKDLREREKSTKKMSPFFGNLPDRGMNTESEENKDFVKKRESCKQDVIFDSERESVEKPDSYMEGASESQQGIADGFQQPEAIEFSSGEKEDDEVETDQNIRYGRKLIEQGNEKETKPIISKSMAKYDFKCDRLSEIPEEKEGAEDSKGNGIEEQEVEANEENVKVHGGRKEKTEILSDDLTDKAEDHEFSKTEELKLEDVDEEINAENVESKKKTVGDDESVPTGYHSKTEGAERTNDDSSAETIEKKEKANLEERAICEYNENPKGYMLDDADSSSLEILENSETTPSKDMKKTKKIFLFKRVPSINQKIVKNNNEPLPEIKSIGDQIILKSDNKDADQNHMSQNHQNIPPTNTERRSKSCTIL

Question: Which fold less association than WT-RPGR does the source give for “^35S-labeled RAB8A-T22N (GDP-locked form), in vitro translated (from UniProt P61006 1-207) (natural protein)” here?
Answer: Its fold less association than WT-RPGR is 5 fold.
